# Source: IntAct's records for PubMed 11955446
# B1: Protein BCL9 homolog (Drosophila melanogaster (Fruit fly)), Q961D9 (parent)
# chain: MLSTTMPRSPTQQQPQPNSDASSTSASGSNPGAAIGNGDSAASRSSPKTLNSEPFSTLSPDQIKLTPEEGTEKSGLSTSDKAATGGAPGSGNNLPEGQTMLRQNSTSTINSCLVASPQNSSEHSNSSNVSATVGLTQMVDCDEQSKKNKCSVKDEEAEISSNKAKGQAAGGGCETGSTSSLTVKEEPTDVLGSLVNMKKEERENHSPTMSPVGFGSIGNAQDNSATPVKIERISNDSTTEKKGSSLTMNNDEMSMEGCNQLNPDFINESLNNPAISSILVSGVGPIPGIGVGAGTGNLLTANANGISSGSSNCLDYMQQQNHIFVFSTQLANKGAESVLSGQFQTIIAYHCTQPATKSFLEDFFMKNPLKINKLQRHNSVGMPWIGMGQVGLTPPNPVAKITQQQPHTKTVGLLKPQFNQHENSKRSTVSAPSNSFVDQSDPMGNETELMCWEGGSSNTSRSGQNSRNHVDSISTSSESQAIKILEAAGVDLGQVTKGSDPGLTTENNIVSLQGVKVPDENLTPQQRQHREEQLAKIKKMNQFLFPENENSVGANVSSQITKIPGDLMMGMSGGGGGSIINPTMRQLHMPGNAKSELLSATSSGLSEDVMHPGDVISDMGAVIGCNNNQKTSVQCGSGVGVVTGTTAAGVNVNMHCSSSGAPNGNMMGSSTDMLASFGNTSCNVIGTAPDMSKEVLNQDSRTHSHQGGVAQMEWSKIQHQFFEERLKGGKPRQVTGTVVPQQQTPSGSGGNSLNNQVRPLQGPPPPYHSIQRSASVPIATQSPNPSSPNNLSLPSPRTTAAVMGLPTNSPSMDGTGSLSGSVPQANTSTVQAGTTTVLSANKNCFQADTPSPSNQNRSRNTGSSSVLTHNLSSNPSTPLSHLSPKEFESFGQSSAGDNMKSRRPSPQGQRSPVNSLIEANKDVRFAASSPGFNPHPHMQSNSNSALNAYKMGSTNIQMERQASAQGGSVQFSRRSDNIPLNPNSGNRPPPNKMTQNFDPISSLAQMSQQLTSCVSSMGSPAGTGGMTMMGGPGPSDINIEHGIISGLDGSGIDTINQNNCHSMNVVMNSMGPRMLNPKMCVAGGPNGPPGFNPNSPNGGLRENSIGSGCGSANSSNFQGVVPPGARMMGRMPVNFGSNFNPNIQVKASTPNTIQYMPVRAQNANNNNNNGANNVRMPPSLEFLQRYANPQMGAVGNGSPICPPSASDGTPGMPGLMAGPGAGGMLMNSSGEQHQNKITNNPGASNGINFFQNCNQMSIVDEEGGLPGHDGSMNIGQPSMIRGMRPHAMRPNVMGARMPPVNRQIQFAQSSDGIDCVGDPSSFFTNASCNSAGPHMFGSAQQANQPKTQHIKNIPSGMCQNQSGLAVAQGQIQLHGQGHAQGQSLIGPTNNNLMSTAGSVSATNGVSGINFVGPSSTDLKYAQQYHSFQQQLYATNTRSQQQQHMHQQHQSNMITMPPNLSPNPTFFVNK
# partner: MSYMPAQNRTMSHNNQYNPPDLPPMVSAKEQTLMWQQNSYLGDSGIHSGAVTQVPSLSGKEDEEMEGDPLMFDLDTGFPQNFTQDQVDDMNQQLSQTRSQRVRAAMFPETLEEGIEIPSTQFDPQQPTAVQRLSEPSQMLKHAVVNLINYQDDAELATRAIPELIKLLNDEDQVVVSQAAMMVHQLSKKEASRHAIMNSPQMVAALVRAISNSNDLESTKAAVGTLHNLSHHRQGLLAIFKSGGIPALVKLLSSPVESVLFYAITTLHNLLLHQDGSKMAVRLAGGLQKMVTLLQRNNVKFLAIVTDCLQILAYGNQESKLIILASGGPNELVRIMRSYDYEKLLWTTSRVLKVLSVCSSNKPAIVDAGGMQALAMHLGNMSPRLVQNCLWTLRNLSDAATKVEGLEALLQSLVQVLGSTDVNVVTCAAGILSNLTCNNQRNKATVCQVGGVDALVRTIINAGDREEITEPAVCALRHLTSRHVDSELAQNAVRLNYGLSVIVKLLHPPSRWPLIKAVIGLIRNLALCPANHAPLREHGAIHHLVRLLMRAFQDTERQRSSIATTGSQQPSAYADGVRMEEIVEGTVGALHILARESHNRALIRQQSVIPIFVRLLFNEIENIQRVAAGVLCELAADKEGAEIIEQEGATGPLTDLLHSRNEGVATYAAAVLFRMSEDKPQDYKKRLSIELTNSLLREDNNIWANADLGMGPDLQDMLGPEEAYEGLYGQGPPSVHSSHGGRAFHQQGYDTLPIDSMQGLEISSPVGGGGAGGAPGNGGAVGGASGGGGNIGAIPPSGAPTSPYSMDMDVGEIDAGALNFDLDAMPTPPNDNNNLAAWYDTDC
# Variants of: B1
# Details: with arm_drome arm
row,effect of a mutation on the interaction,Variant
1,decreasing interaction,L534F
